This note sets out measurements from PMC3317677 (International Journal of Molecular Sciences, 2012).

Assay [1] concerns the target DENV2 envelope (E) protein in DENV2 infected BHK-21 cells (Dengue virus type 2, GenBank EU081177.1, UniProt A9LIC9, strain). Nature of the assay: immunostaining of cells or tissue. The note with it: one partner purified.
Assay [2] addresses T1, DENV3 envelope protein domain III (EDIII, aa295-395) (Dengue virus type 3, …, UniProt P27915, strain).
T1 construct: also called DENV3 EDIII; EDIII from DENV3
Nature of the assay: ELISA. The following applies: both partners purified.

In assay [3] the target is T2, DENV1 envelope protein domain III (EDIII, aa295-395) (Dengue virus type 1, Hawaii, strain).
T2 construct: also called DENV1 EDIII; EDIII from DENV1
T2 chain: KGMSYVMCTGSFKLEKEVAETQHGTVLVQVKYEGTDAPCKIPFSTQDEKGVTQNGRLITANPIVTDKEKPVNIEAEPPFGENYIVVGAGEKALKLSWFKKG
In words: ELISA. The following applies: both partners purified.

Assay [4] deals with T3, DENV4 envelope protein domain III (EDIII, aa295-395) (Dengue virus type 4, …, UniProt Q58HT7, strain).
T3 construct: also called DENV4 EDIII; EDIII from DENV4
In words: ELISA. The note with it: both partners purified.

B1: C9 IgG (chimeric mouse/human IgG) (antibody, V domains shown)
VH: EVQLQQSGAELVRPGASVKLSCKALGYRFTDYEMYWVKQTPAHGLEWIGGIHPRSGNTAYNQKFKDKATLTADKSSSTAYMELSSLTSEDSAVYYCTTSLYWGQGTLVTVSA
VL: DVLMTQTPLSLPVILGDQASISCRSSQSLVHSNGNTYLHWYLQKPGQSPKLLIYSIFNRFSGVPDRFSGSGSGTDFTLKISRVEAEDLGVYFCSQGTHVPWTFGGGTKLEIK
notes: Bivalent IgG
For the molecule B1, the binding result is reported as “binds” in assay [1] and “no binding” in assay [4]. The “fold stronger interaction than the C9 Fab (average)” value in assay [2] and in assay [3] was roughly 30 times each time.

B2: F1 Fab (chimeric mouse/human Fab) (Fab, V domains shown)
VH: EVKLVESGAELVRPGASVKLSCKALGYRFTDYEMYWVKQTPAHGLEWIGGIHPRSGNTAYNQKFKDKATLTADKSSSTAYMELSSLTSEDSAVYYCTTSLYWGQGTLVTVSA
VL: DILMTQSPLSLPVSLGDQASISCRSSQSLVHSTGNTYLHWYLQKPGQSPKLLIYKVSNRFSGVPDRFSGSGSGTDFTLKISRVEAEDLGVYFCSQGTHVPWTFGGGTKLELK
Consider B2, for which the binding result in assay [2] and in assay [3] was “binds” each time.

B3: C9 Fab (chimeric mouse/human Fab) (Fab, V domains shown)
VH: EVQLQQSGAELVRPGASVKLSCKALGYRFTDYEMYWVKQTPAHGLEWIGGIHPRSGNTAYNQKFKDKATLTADKSSSTAYMELSSLTSEDSAVYYCTTSLYWGQGTLVTVSA
VL: DVLMTQTPLSLPVILGDQASISCRSSQSLVHSNGNTYLHWYLQKPGQSPKLLIYSIFNRFSGVPDRFSGSGSGTDFTLKISRVEAEDLGVYFCSQGTHVPWTFGGGTKLEIK
Consider B3, for which, in assay [4], the binding result is “no binding”.
